B1: MON-HT4: engineered oxygenase protein, amino acid sequence SEQ ID NO:25 (protein)
chain: MHAALTPLTNKYRFIDVQPLTGVLGAEITGVDLREPLDDSTWNEILDAFHTYQVIYFPGQAITNEQHIAFSRRFGPVDPVPLLKSIEGYPEVQMIRREANESGRVIGDDWHTDSTFLDAPPAAVVMYAREVPPYGGDTGFLSMYTAWETLSPTMQATIEGLNVVHSATRVFGSLYQAQNRRYSNTSVKVMDVDAGDRETVHPLVVSHPVTGRRALYCNQVYCQRIEGMTDAESKSLLQFLYEHATKFDFTCRVRWKKDQVLVWDNLCTMHRAVPDYAGKFRYLTRTTVAGDKPSR
B2: MON-HT2: engineered oxygenase protein, amino acid sequence SEQ ID NO:18 (protein)
chain: MHAALTPLTNKYRFIDVQPLTGVLGAEITGVDLREPLDDSTWNEILDAFHTYQVIYFPGQAITNEQHIAFSRRFGPVDPVPLLKSIEGYPEVQMIRREANESSRVIGDDWHSDSTFLDAPPAAVVMRAIEVPEYGGDTGFLSMYSAWETLSPTMQATIEGLNVVHSATKVFGSLYQATNWRFSNTSVKVMDVDAGDRETVHPLVVTHPVTGRRALYCNQVYCQKIQGMTDAESKSLLQFLYEHATKFDFTCRVRWKKDQVLVWDNLCTMHRAAPDYAGKFRYLTRTTVAGDKPSR

What was measured:
[1] = type: physicochemical; conditions: buffer; for T1/2, temperature where 50% of the protein was unfolded, Buffer: pH 7.5
Method in brief: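 Thermal shift assay: purified enzyme in 30 mM Tris pH7.5, 150 mM NaCl, with or without 50 uM Fe2+ and 1.0 mM aKG. Unfolding followed by SYPRO orange fluorescence from 10° C. to 95° C. in 0.5° C. steps; melting temperature (T1/2) taken from the curve.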

[2] = enzyme activity assay at 23° C. with purified enzyme; type: biochemical
Method: The enzyme activity of MON-HT protein variants with haloxyfop, fenoxaprop, fluazifop, and dichlorprop as substrates was determined using the enzyme activity assay conducted at 23° C. with purified enzyme. The activity was recorded as the maximum activity as a percentage of the wild-type enzyme's activity, which was set at 100%.

[3] = tested on: F1 hybrid maize plants; assay: efficacy field trial for quizalofop-P tolerance and clethodim sensitivity; type: in vivo; conditions: for average injury rating, V4 Growth Stage, 4x Quizalofop / average injury rating, V8 Growth Stage, 4x Quizalofop / average injury rating, V4 Growth Stage, 8x Quizalofop / average injury rating, V8 Growth Stage, 8x Quizalofop / average injury rating, V4 Growth Stage, 16x Quizalofop / average injury rating, V8 Growth Stage, 16x Quizalofop / average injury rating, V8 Growth Stage, 1x Clethodim: scale 0 to 100; for average injury rating, V4 Growth Stage, 4x Quizalofop / average injury rating, V8 Growth Stage, 4x Quizalofop: 0.32 lb ai/acre at VE-V2, V4, V8; for average injury rating, V4 Growth Stage, 4x Quizalofop / average injury rating, V8 Growth Stage, 4x Quizalofop / average injury rating, V4 Growth Stage, 8x Quizalofop / average injury rating, V8 Growth Stage, 8x Quizalofop / average injury rating, V4 Growth Stage, 16x Quizalofop / average injury rating, V8 Growth Stage, 16x Quizalofop: with CTP unless label says no CTP; for average injury rating, V4 Growth Stage, 8x Quizalofop / average injury rating, V8 Growth Stage, 8x Quizalofop: 0.64 lb ai/acre at VE-V2, V4, V8; for average injury rating, V4 Growth Stage, 16x Quizalofop / average injury rating, V8 Growth Stage, 16x Quizalofop: 1.28 lb ai/acre at VE-V2, V4, V8; for average injury rating, V8 Growth Stage, 1x Clethodim: clethodim 0.25 lb ai/acre at V8, volunteer control; for tolerance to the quizalofop-P application: 1.28 lb ai/acre (16×)
Method: (§1) Separate trait efficacy field trials for quizalofop-P and 2,4-D were conducted at two locations cach with F1 hybrid transgenic plants produced by crossing an inbred plant containing maize event MON89034 with an R1 plant containing MON-HT55 (with a CTP), MON-HTI (with or without a CTP), MON-HT2 (with or without a CTP), MON-HT3 (with a CTP), MON-HT4 (with a CTP), MON-HT5 (with a CTP), MON-HT6 (with a CTP), or MON-HT7 (with a CTP). Transgenic F1 hybrid plants containing maize events NK603×MON89034 were used for comparison as a control.
In the efficacy field trial for quizalofop-P tolerance and clethodim sensitivity, one of four herbicide treatments was used: (1) quizalofop-P (Assure II) at 0.32 lb ai/acre (4×) plus 0.25% v/v non-ionic surfactant (NIS) applied at VE-V2 growth stage followed by the same at V4 growth stage followed by the same at V8 growth stage; (2) quizalofop-P at 0.64 lb ai/acre (8×) plus 0.25% v/v NIS applied at VE to V2 growth stage followed by the same at V4 growth stage followed by the same at V8 growth stage; (3) quizalofop-P at 1.28 lb ai/acre (16×) plus 0.25% v/v NIS applied at VE to V2 growth stage followed by the same at V4 growth stage followed by the same at V8growth stage; or (4) clethodim at 0.25 lb ai/acre (1×) plus 0.25% v/v NIS applied at V8 growth stage. Plots were visually rated 10-14 days after application for crop injury on a scale of 0 to 100with “0” being none and “100” being complete crop destruction. Tables 14 and 15 show the average injury ratings after herbicide application at V4 or V8 growth stage, respectively.

[4] = tested on: F1 hybrid maize plants; assay: efficacy field trial for 2,4-D tolerance; type: in vivo; conditions: for average injury rating, V4 Growth Stage, 2x 2,4-D / average injury rating, V8 Growth Stage, 2x 2,4-D / average injury rating, V4 Growth Stage, 4x 2,4-D / average injury rating, V8 Growth Stage, 4x 2,4-D / average injury rating, V4 Growth Stage, 8x 2,4-D / average injury rating, V8 Growth Stage, 8x 2,4-D / average injury rating, V4 Growth Stage, 16x 2,4-D / average injury rating, V8 Growth Stage, 16x 2,4-D: scale 0 to 100, with CTP unless label says no CTP; for average injury rating, V4 Growth Stage, 2x 2,4-D / average injury rating, V8 Growth Stage, 2x 2,4-D: 2 lb ae/acre at VE-V2, V4, V8; for average injury rating, V4 Growth Stage, 4x 2,4-D / average injury rating, V8 Growth Stage, 4x 2,4-D: 4 lb ae/acre at VE-V2, V4, V8; for average injury rating, V4 Growth Stage, 8x 2,4-D / average injury rating, V8 Growth Stage, 8x 2,4-D: 8 lb ae/acre at VE-V2, V4, V8; for average injury rating, V4 Growth Stage, 16x 2,4-D / average injury rating, V8 Growth Stage, 16x 2,4-D: 16 lb ae/acre at VE-V2, V4, V8
Method: as §1
In the efficacy field trial for 2,4-D tolerance, one of four herbicide treatments was used: (1) 2,4-D amine at 2 lb ac/acre (2×) plus 0.25% v/v non-ionic surfactant (NIS) applied to VE to V2 followed by V4 followed by V8; (2) 2,4-D amine at 4 lb ac/acre (4×) plus 0.25% v/v NIS applied to VE to V2 followed by V4 followed by V8; (3) 2,4-D amine at 8 lb ac/acre (8×) plus 0.25% v/v NIS applied to VE to V2 followed by V4 followed by V8 maize; or (4) 2,4-D amine at 16 lb ac/acre (16×) plus 0.25% v/v NIS applied to VE to V2 followed by V4 followed by V8. Plots were visually rated as above. Tables 14 and 15 show the average injury ratings after herbicide application at V4 or V8 growth stage, respectively.

Row | Molecule | T1/2, temperature where 50% of the protein was unfolded, Buffer plus Fe2+ and aKG [1] | T1/2, temperature where 50% of the protein was unfolded, Buffer [1] | maximum activity as a percentage of the wild-type enzyme's activity, Dichlorprop ([2]; wild-type set at 100%) | average injury rating, V4 Growth Stage, 4x Quizalofop [3] | average injury rating, V8 Growth Stage, 4x Quizalofop [3] | average injury rating, V4 Growth Stage, 8x Quizalofop [3] | average injury rating, V8 Growth Stage, 8x Quizalofop [3] | average injury rating, V4 Growth Stage, 16x Quizalofop [3] | average injury rating, V8 Growth Stage, 16x Quizalofop [3] | average injury rating, V8 Growth Stage, 1x Clethodim [3] | average injury rating, V4 Growth Stage, 2x 2,4-D [4] | average injury rating, V8 Growth Stage, 2x 2,4-D [4] | average injury rating, V4 Growth Stage, 4x 2,4-D [4] | average injury rating, V8 Growth Stage, 4x 2,4-D [4] | average injury rating, V4 Growth Stage, 8x 2,4-D [4] | average injury rating, V8 Growth Stage, 8x 2,4-D [4] | average injury rating, V4 Growth Stage, 16x 2,4-D [4] | average injury rating, V8 Growth Stage, 16x 2,4-D [4] | further results
1 | B1 | 44 °C | 43 °C | 39% | 2.8 | 3.3 | 3.3 | 3.3 | 13.8 | 8.0 | 94.5 | 0.0 | 2.0 | 1.3 | 8.8 | 8.8 | 12.5 | 18.8 | 21.3 | maximum activities for all four substrates compared with the wild-type enzyme ([2]; haloxyfop, fenoxaprop, fluazifop and dichlorprop): lower than, or equal to; maximum activity as a percentage of the wild-type enzyme's activity, Haloxyfop ([2]; purified enzyme, wild-type set at 100%): 49%; maximum activity as a percentage of the wild-type enzyme's activity, Fenoxaprop ([2]; wild-type set at 100%): 53%; maximum activity as a percentage of the wild-type enzyme's activity, Fluazifop ([2]; wild-type set at 100%): 52%
2 | B2 | 58 °C | 55 °C | 92% | 1.5 | 2.5 | 0.8 | 3.8 | 10.0 | 4.8 | 93.3 | 1.3 | 2.5 | 0.0 | 3.3 | 4.5 | 10.0 | 7.5 | 15.0 | tolerance to the quizalofop-P application ([3]; operably linked to a CTP, FIG. 5A): robust tolerance; average injury rating, V4 Growth Stage, 4x Quizalofop ([3]; listed as MON-HT2 (no CTP)): 42.5; average injury rating, V8 Growth Stage, 4x Quizalofop ([3]; listed as MON-HT2 (no CTP)): 16.3; average injury rating, V4 Growth Stage, 8x Quizalofop ([3]; listed as MON-HT2 (no CTP)): 76.3; average injury rating, V8 Growth Stage, 8x Quizalofop ([3]; listed as MON-HT2 (no CTP)): 52.5; average injury rating, V4 Growth Stage, 16x Quizalofop ([3]; listed as MON-HT2 (no CTP)): 82.5; average injury rating, V8 Growth Stage, 16x Quizalofop ([3]; listed as MON-HT2 (no CTP)): 77.5; average injury rating, V8 Growth Stage, 1x Clethodim ([3]; listed as MON-HT2 (no CTP)): 92.0; tolerance to the quizalofop-P application ([3]; without a CTP, FIG. 5B): moderate to poor tolerance; average injury rating, V8 Growth Stage, 2x 2,4-D ([4]; listed as MON-HT2 (no CTP)): 5.0; average injury rating, V4 Growth Stage, 4x 2,4-D ([4]; listed as MON-HT2 (no CTP)): 2.5; average injury rating, V8 Growth Stage, 4x 2,4-D ([4]; listed as MON-HT2 (no CTP)): 8.8; average injury rating, V4 Growth Stage, 8x 2,4-D ([4]; listed as MON-HT2 (no CTP)): 13.8; average injury rating, V8 Growth Stage, 8x 2,4-D ([4]; listed as MON-HT2 (no CTP)): 13.8; average injury rating, V4 Growth Stage, 16x 2,4-D ([4]; listed as MON-HT2 (no CTP)): 21.3; average injury rating, V8 Growth Stage, 16x 2,4-D ([4]; listed as MON-HT2 (no CTP)): 25.0; injury rating after 2,4-D application at V4 growth stage at 8× ([4]; without the CTP): 13.75%; injury rating after 2,4-D application at V4 growth stage at 16× ([4]; without the CTP): 21.25%

Source: US12723255B2, “Herbicide tolerance genes and methods of use thereof” (priority 2014, dated 2026)
